Data reported in paper PMC8794821, “SNX27 suppresses SARS-CoV-2 infection by inhibiting viral lysosome/late endosome entry” (Proceedings of the National Academy of Sciences of the …, 2022).
No end group written: not given here.

Target: PDZ domain of SNX27 (residues 40 to 135) (human, UniProt Q96L92 40-135)
Experiment: ITC; MicroCal iTC200, 25 °C; ACE2-PBM peptide (125 µM, 5% DMSO) in the syringe, PDZ protein (100 µM, 5% DMSO) in the cell; 20 mM Tris pH 8.0, 150 mM NaCl
Details: both partners purified

B1: ACE2-PBM peptide (-DDVQTSF-COO−) (peptide)
peptide: DDVQTSF-OH
notes: also called human ACE2-PBM; source: synthetic peptide (Beijing SciLight Biotechnology Ltd. Co.)
- Kd: 20 µM
